Data: PMC4811514, “MULTIMERIN2 binds VEGF-A primarily via the carbohydrate chains exerting an angiostatic function and impairing tumor growth” (Oncotarget, 2015)
One block for each molecule: values may come before it.

How the values were obtained:
MULTIMERIN2 [1] = molecular target: T1, MULTIMERIN2 (UniProt Q9H8L6 23-949, glycosylated (carbohydrate chains)); assay: SPR; Biacore X100, CM5 chip; MMRN2 immobilised by amine coupling (3150 RU); cytokines in HBS-EP buffer (150 mM NaCl), 30 μL/min, 60 seconds of contact
T1 construct: MULTIMERIN2 (MMRN2), the whole recombinant His-tagged molecule; also called MMRN2; the whole molecule; source: 293-EBNA cells, purified from serum-free medium (Ni-NTA resin)
T1 sequence (looked up): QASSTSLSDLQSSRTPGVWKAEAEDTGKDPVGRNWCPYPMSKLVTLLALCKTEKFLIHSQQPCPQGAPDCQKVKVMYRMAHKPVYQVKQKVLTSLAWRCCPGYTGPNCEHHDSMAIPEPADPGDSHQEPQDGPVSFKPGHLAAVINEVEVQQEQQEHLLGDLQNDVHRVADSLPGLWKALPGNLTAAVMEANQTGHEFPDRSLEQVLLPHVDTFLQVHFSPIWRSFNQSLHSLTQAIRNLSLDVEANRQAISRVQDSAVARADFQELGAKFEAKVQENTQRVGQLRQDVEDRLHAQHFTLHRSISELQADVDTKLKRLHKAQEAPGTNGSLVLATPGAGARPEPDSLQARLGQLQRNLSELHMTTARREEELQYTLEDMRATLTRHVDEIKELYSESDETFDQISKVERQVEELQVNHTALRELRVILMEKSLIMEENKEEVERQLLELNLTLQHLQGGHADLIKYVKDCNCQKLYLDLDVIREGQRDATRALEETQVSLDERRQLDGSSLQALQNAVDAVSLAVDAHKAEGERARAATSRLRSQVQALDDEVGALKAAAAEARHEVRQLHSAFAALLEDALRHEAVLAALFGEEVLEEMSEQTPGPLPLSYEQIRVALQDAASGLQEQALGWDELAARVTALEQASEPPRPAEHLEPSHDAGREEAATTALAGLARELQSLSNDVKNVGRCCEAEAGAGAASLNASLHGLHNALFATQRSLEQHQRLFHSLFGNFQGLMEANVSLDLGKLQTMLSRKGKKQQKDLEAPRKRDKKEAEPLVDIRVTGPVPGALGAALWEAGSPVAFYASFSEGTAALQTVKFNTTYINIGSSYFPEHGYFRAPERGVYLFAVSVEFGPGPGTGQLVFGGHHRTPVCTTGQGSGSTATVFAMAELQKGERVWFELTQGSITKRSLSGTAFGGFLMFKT

MULTIMERIN2 [2] = molecular target: T1, MULTIMERIN2; assay: SPR; Biacore X100, CM5 chip; MMRN2 immobilised by amine coupling; NaCl concentration of 300 mM instead of 150 mM
MMRN2 Δ2 deletion mutant = MMRN2 Δ2 deletion mutant (UniProt Q9H8L6); assay: SPR; Biacore X100, CM5 chip; Δ2 fragment immobilised by amine coupling (1770 RU); VEGF-A165 in HBS-EP buffer, 30 μL/min, 60 seconds of contact

- Kd (MULTIMERIN2 [1]): 560 nM
Molecule: PlGF-1 (from UniProt P49763-2 19-149) (ligand)

- Kd (MULTIMERIN2 [1]): 200 nM
Molecule: VEGF-A121 (ligand)

- Kd (MULTIMERIN2 [2]): 27 nM
Molecule: VEGF-A145 (ligand)

- Kd (MULTIMERIN2 [1]): 750 nM
Molecule: VEGF-C (from UniProt P49767 112-227) (ligand)

- Kd (MMRN2 Δ2 deletion mutant): 430 nM
Molecule: VEGF-A165 (ligand)

- Kd (MULTIMERIN2 [2]): 3 nM
Molecule: VEGF-A189 (ligand)

- Kd (MULTIMERIN2 [1]; both partners purified): 640 nM
B1: VEGF-D (ligand, UniProt O43915 89-205, looked up)
chain: FAATFYDIETLKVIDEEWQRTQCSPRETCVEVASELGKSTNTFFKPPCVNVFRCGGCCNEESLICMNTSTSYISKQLFEISVPLTSVPELVPVKVANHTGCKCLPTAPRHPYSIIRR
notes: vascular endothelial growth factor D; Commercial VEGF-D is usually the processed VEGF homology domain, not the whole precursor; source: bought: Peprotech
